The values that follow come from PMC4212957, “The serodominant secreted effector protein of Salmonella, SseB, is a strong CD4 antigen containing an immunodominant epitope presented by diverse HLA class II alleles” (Immunology, 2014).

For assay [1], the target named is HLA-DRB1*01:01 (Homo sapiens, UniProt P01903+P01911, A100R/D57E/F55L/F60I/F76Y/I96L/L162R/M171V/P40L/Q125E/R42F/V115G/Y59C). The conditions noted are these: competitive ELISA; ratio IC50 of peptide / IC50 of reference peptide HA 306–318; lower = higher affinity; ratio 20 or less high, 20–100 moderate; three independent experiments.
The subject of assay [2] is draining lymph node cells of HLA-DR1 transgenic mice. The assay is described as follows: Murine IFN-γ ELISpot, HLA-DR1 transgenic mice primed with SseB. Particulars: mouse, in vivo. From the text:
Mice transgenic for HLA-DR1 (that is, HLA-DRA1*0101/HLA-DRB1*0101) and HLA-DR4 (that is, HLA-DRA1*0101/HLA-DRB1*0401)[24]–[26] were bred and housed in the Centre for Biological Services at the Hammersmith campus, Imperial College London, UK, in accordance with Home Office regulations and College ethics review. Both transgenic lines are maintained on a C57BL/6 background as homozygotes for knockout of murine MHC Class II H2-Aβ.[27]
HLA-DR1 or HLA-DR4 transgenic mice were primed, by subcutaneous injection into the footpad, with 25 μg of recombinant SseB protein administered as a 1 : 1 emulsion with TiterMax® Gold (CytRx Corporation, Los Angeles, CA). Ten days after priming, popliteal draining lymph nodes were harvested and stimulated, in triplicate, at 2 × 10^5 cells per well with 25 μg of SseB peptide or recombinant protein in pre-coated murine IFN-γ ELISpot plates (2BScientific, Upper Heyford, Oxfordshire, UK). Culture medium was RPMI-1640 containing 2 mM L-glutamine, 50 U/ml penicillin G, 50 μg/ml streptomycin sulphate, 50 μM β-mercaptoethanol and 10% fetal calf serum. Cells were cultured at 37° and in 5% CO2 for 72 hr before assay development using a biotinylated anti-IFN-γ antibody, a horseradish peroxidase detection antibody and TMB substrate (2BScientific). Developed plates were left to dry before spot counting using an AID ELISpot reader (Autoimmun Diagnostika GMBH). Positive epitopes for a given transgenic line were defined as those where more than half of assayed animals gave a greater number of spot-forming cells than 2 SD over the mean of the no protein/peptide control.
Fig 1 Definition of HLA-DR specific T-cell epitopes in DR1 and DR4 transgenic mice. (a) HLA-DR1 (n = 5) and (b) HLA-DR4 (n = 6) mice were footpad primed with ssEB protein in combination with TiterMax® Gold adjuvant. Draining lymph node (DLN) cells were assayed by ELISpot at day 10 for interferon-γ (IFN-γ) T-cell responses to ssEB peptides and protein. A peptide was defined as containing a T-cell epitope for DR1 or DR4 HLA molecules if more than half of the mice assayed gave a greater number of spot-forming cells than 2 SD over the mean of the no peptide/protein control. The 2 SD value for each transgenic line is shown by a dotted line.

Assay [3] has as its target HLA-DRB1*11:01 (Homo sapiens, UniProt P01903+P01911, A100R/A169T/A87E/I96F/K41T/L162R/M171V/P40S/Q125H/Q178H/Q39Y/Q99D/R42S/S66Y/T262R/V115G/W38E). The conditions noted are these: competitive ELISA; ratio IC50 of peptide / IC50 of reference peptide HA 306–318; lower = higher affinity; ratio 20 or less high, 20–100 moderate; three independent experiments.
For assay [4], the target named is HLA-DRB1*07:01 (Homo sapiens, UniProt P01903+P01911, A100R/A102G/A103Q/D57E/D86V/E43K/F76Y/K127E/L162R/M171V/P40G/Q125H/Q99D/R33Q/R42Y/R54Q/S133A/S66F/T210M/V115G/Y107V/Y59L/Y89S). The conditions noted are these: competitive ELISA; ratio IC50 of peptide / IC50 of reference peptide HA 306–318; lower = higher affinity; ratio 20 or less high, 20–100 moderate; three independent experiments.

The target in assay [5] is HLA-DRB1*12:02 (Homo sapiens, UniProt P01903+P01911, A100R/A169T/D57E/D86V/F55L/H45Y/I96F/K41T/L162R/M171V/P40S/Q125H/Q178H/Q39Y/Q99D/R42G/S66L/T262R/V114A/V67L/W38E/Y59H/Y61H/Y89S). The assay is described as follows: Peptide/HLA-DR binding, competitive ELISA. Particulars: ratio IC50 of peptide / IC50 of reference peptide TFR 141–155, lower = higher affinity, ratio 20 or less high, 20–100 moderate, three independent experiments. A digest of the protocol: (§1)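 HLA-DR heterodimers, affinity-purified with L243 from homozygous EBV B-lymphoblastoid lines, were tested in competitive ELISA against biotinylated reference peptides. The IC50 is the peptide concentration inhibiting 50% of labelled-peptide binding, expressed as relative affinity to the unlabelled reference peptide.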

Assay [6] has as its target T1, HLA-DRB1*15:02 (Homo sapiens, UniProt P01903+P01911, V115G).
T1 construct: HLA-DR heterodimers were purified from homozygous Epstein–Barr virus B-lymphoblastoid cell lines; host or cells: homozygous EBV B-lymphoblastoid cell line
The assay is described as follows: Peptide/HLA-DR binding, competitive ELISA. Particulars: ratio IC50 of peptide / IC50 of reference peptide TFR 607–620, lower = higher affinity, ratio 20 or less high, 20–100 moderate, three independent experiments. An outline of the steps: as §1

Assay [7] addresses T2, HLA-DRB1*03:01 (Homo sapiens, UniProt P01903+P01911, A100K/A102G/A103R/A169T/F55Y/I96L/K41T/L162R/M171V/P40S/Q125H/Q178H/Q39Y/R42S/S66N/T106N/T262R/W38E/Y61H).
T2 construct: HLA-DR heterodimers were purified from homozygous Epstein–Barr virus B-lymphoblastoid cell lines; host or cells: homozygous EBV B-lymphoblastoid cell line
Description: Peptide/HLA-DR binding, competitive ELISA. Particulars: ratio IC50 of peptide / IC50 of reference peptide MT2-16, lower = higher affinity, ratio 20 or less high, 20–100 moderate, three independent experiments. An outline of the steps:
as §1

Assay [8] concerns the target T3, HLA-DRB1*09:01 (Homo sapiens, UniProt P01903+P01911, A100R/A103E/D57H/D86V/F55Y/F60I/F76Y/I96F/K127E/L162R/M171V/P40D/Q125H/Q99R/R33Q/R42F/S133A/S66N/T210M/V115G/W38K/Y107V/Y59G/Y89S).
T3 construct: HLA-DR heterodimers were purified from homozygous Epstein–Barr virus B-lymphoblastoid cell lines; host or cells: homozygous EBV B-lymphoblastoid cell line
The assay is described as follows: Peptide/HLA-DR binding, competitive ELISA. Particulars: ratio IC50 of peptide / IC50 of reference peptide CTP 427–441, lower = higher affinity, ratio 20 or less high, 20–100 moderate, three independent experiments. A digest of the protocol:
as §1

For the substance “2: SseB overlapping library peptide, residues 11–30 (QNPIVFKNSFGVSNADTGSQ) [Peptide 2]”, the “Relative binding affinity of peptide to HLA-DR molecules DRB1*0101” value in assay [1] was 300. Moreover, the “IFN-γ ELISpot recall response / CD4 epitope in HLA-DR1 transgenic mice” value in assay [2] is on record as “carry HLA-DR1 restricted immunodominant CD4 epitopes”. Further, in assay [3], the “Relative binding affinity of peptide to HLA-DR molecules DRB1*1101” value is recorded as greater than 278. Further, in assay [4], the “Relative binding affinity of peptide to HLA-DR molecules DRB1*0701” value came to 14. Further, the “Relative binding affinity of peptide to HLA-DR molecules DRB1*1202” value in assay [5] is recorded as 59. For the same substance, the “Relative binding affinity of peptide to HLA-DR molecules DRB1*1502” value in assay [6] worked out at 5. Moreover, in assay [7], the “Relative binding affinity of peptide to HLA-DR molecules DRB1*0301” value is greater than 119. The “Relative binding affinity of peptide to HLA-DR molecules DRB1*0901” value in assay [8] was found to be 10.

With “11: SseB overlapping library peptide, residues 101–120 (EDVIKYMRDNGILIDGMTID) [Peptide 11]”, the “Relative binding affinity of peptide to HLA-DR molecules DRB1*0101” value in assay [1] was found to be 61. For the same substance, the “IFN-γ ELISpot recall response / CD4 epitope in HLA-DR1 transgenic mice” value in assay [2] was “carry HLA-DR1 restricted immunodominant CD4 epitopes”. The “Relative binding affinity of peptide to HLA-DR molecules DRB1*1101” value in assay [3] is greater than 278. Further, the “Relative binding affinity of peptide to HLA-DR molecules DRB1*0701” value in assay [4] came out at 2. Further, the “Relative binding affinity of peptide to HLA-DR molecules DRB1*1202” value in assay [5] stood at 8. Besides, the “Relative binding affinity of peptide to HLA-DR molecules DRB1*1502” value in assay [6] was found to be 37. For the same substance, the “Relative binding affinity of peptide to HLA-DR molecules DRB1*0301” value in assay [7] is reported as greater than 119. The “Relative binding affinity of peptide to HLA-DR molecules DRB1*0901” value in assay [8] is on record as 34.

Consider “AVLTQLTGLISKWGEISSMIAQKTYS [Peptide 18, SseB overlapping library peptide, residues 171–196]”, for which, in assay [1], the “Relative binding affinity of peptide to HLA-DR molecules DRB1*0101” value was 2. For the same substance, the “IFN-γ ELISpot recall response / CD4 epitope in HLA-DR1 transgenic mice” value in assay [2] is “carry HLA-DR1 restricted immunodominant CD4 epitopes”. Further, the “Relative binding affinity of peptide to HLA-DR molecules DRB1*1101” value in assay [3] worked out at 7. In assay [4], the “Relative binding affinity of peptide to HLA-DR molecules DRB1*0701” value is 12. The “Relative binding affinity of peptide to HLA-DR molecules DRB1*1202” value in assay [5] came out at 4. Moreover, the “Relative binding affinity of peptide to HLA-DR molecules DRB1*1502” value in assay [6] is listed as 63. Also, the “Relative binding affinity of peptide to HLA-DR molecules DRB1*0301” value in assay [7] is greater than 119. Further, in assay [8], the “Relative binding affinity of peptide to HLA-DR molecules DRB1*0901” value was 21.
